Our source for the decrease of binding against native LL-37, loss of binding against native LL-37 and Kd values is article PMC8534323.

For assay [1], the target named is enolase (Eno1) (C. albicans (endogenous in strain ATCC 10231)) (UniProt P30575). Briefly: SPR. In general terms: In SPR one partner is held on a chip, and binding of the other changes the refractive index at the surface.
In assay [2] the target is Als3 (agglutinin-like sequence protein 3), isolated from the surface of C. albicans (C. albicans (endogenous in strain ATCC 10231)) (UniProt Q59L12). Nature of the assay: SPR.
Assay [3] concerns the target Phosphoglycerate mutase 1 (Gpm1), recombinant (C. albicans) (UniProt P82612). Briefly: SPR.
For assay [4], the target named is triosephosphate isomerase 1 (Tpi1) (C. albicans (endogenous in strain ATCC 10231)) (UniProt Q9P940). Briefly: SPR.
The target of assay [5] is enolase (Eno1) (C. albicans (endogenous in strain ATCC 10231)) (UniProt P30575). Briefly: ELISA-like microplate ligand-binding assay; fungal protein immobilised on the microplate, soluble fluorescent-labeled histones; saturation one-site binding model.
Assay [6] deals with Als3 (agglutinin-like sequence protein 3), isolated from the surface of C. albicans (C. albicans (endogenous in strain ATCC 10231)) (UniProt Q59L12). The assay is described as above.
The target of assay [7] is Phosphoglycerate mutase 1 (Gpm1), recombinant (C. albicans) (UniProt P82612). The description is as above.
Chain of Phosphoglycerate mutase 1 (Gpm1), recombinant (C. albicans) (P82612 whole entry): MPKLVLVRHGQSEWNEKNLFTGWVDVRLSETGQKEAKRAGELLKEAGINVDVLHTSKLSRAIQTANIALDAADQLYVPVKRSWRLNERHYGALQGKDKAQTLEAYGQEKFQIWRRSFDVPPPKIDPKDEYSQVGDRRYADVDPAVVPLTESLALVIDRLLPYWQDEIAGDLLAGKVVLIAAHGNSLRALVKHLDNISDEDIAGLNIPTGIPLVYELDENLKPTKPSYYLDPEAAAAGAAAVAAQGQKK

Chain of triosephosphate isomerase 1 (Tpi1) (C. albicans (endogenous in strain ATCC 10231)) (Q9P940 whole entry): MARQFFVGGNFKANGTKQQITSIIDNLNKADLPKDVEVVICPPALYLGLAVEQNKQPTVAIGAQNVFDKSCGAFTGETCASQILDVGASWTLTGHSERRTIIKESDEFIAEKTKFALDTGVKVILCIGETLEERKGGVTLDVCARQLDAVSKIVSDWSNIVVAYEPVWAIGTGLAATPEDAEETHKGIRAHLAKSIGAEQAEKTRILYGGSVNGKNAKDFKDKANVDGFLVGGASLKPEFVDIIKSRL

LL-37(7)Cit (peptide): the decrease of binding against native LL-37 in assay [1] and in assay [2] was 50% throughout. Further, the loss of binding against native LL-37 in assay [3] came to 75%.

Regarding cathelicidin-derived peptide LL-37, the Kd (in general, the free concentration of one partner at which half of the binding sites on the other are occupied at equilibrium, for simple one-to-one binding) in assay [1] worked out at 0.0146 µM; in assay [4] it was 0.0683 µM; in assay [2], 0.228 µM; in assay [3], 0.598 µM.

As for “histone H2 (from UniProt P0C0S8 1-130) (natural protein)”, the Kd in assay [5] worked out at 0.911 µM; in assay [6], 1.79 µM.

Regarding “histone H3 (from UniProt P68431 1-136) (natural protein)”, the Kd worked out at 1.23 µM in assay [5], 0.0234 µM in assay [6] and 0.258 µM in assay [7].

On to “lactotransferrin (LF) (from UniProt P02788 20-710) (natural protein)”, for which the Kd in assay [2] was found to be 0.0859 µM.

With myeloperoxidase (MPO) (enzyme), the Kd in assay [1] was found to be 0.0787 µM; in assay [4], 0.045 µM; in assay [2] it was 0.0116 µM; in assay [3], 0.353 µM.
